This is an account of results in patent US20240293518A1 (HEALTH RESEARCH, published 2024).

Assay [1] concerns the target ErbB2/delD2, human ErbB2 with deletion of ECD subdomain 2 (deletion of amino acids 196-320) (human) (UniProt P04626). Nature of the assay: ELISA; panel e; cell lysates. Conditions: ligand. Background: ELISA stands for enzyme-linked immunosorbent assay.
Assay [2] concerns the target ErbB2/delD4, human ErbB2 with deletion of ECD subdomain 4 (deletion of amino acids 489-560) (human) (UniProt P04626). Put plainly: ELISA; panel e; cell lysates. Conditions: ligand.
The target in assay [3] is T1, Human ErbB2, wild type, full length (human, UniProt P04626 23-1255).
T1 construct: whole, on cells; Three sources: CHO-K1 cells transiently transfected with pCMV6-XL5-ERBB2, CHO-K1/ErbB2 cells expressing it stably, and BT-474 cells where it is endogenous; The ELISA and the immunoprecipitations used cell lysates; The other assays used living cells; also called WT-ErbB2; Her2
Put plainly: ELISA; ErbB2 captured from lysates of ErbB2-transfected CHO-K1 cells by an antibody to its cytoplasmic tail, His-tagged PEPD detected with anti-His. The source says:
(§1) Overexpression of human ErbB2 in CHO-K1 cells was readily achieved by gene transfection (FIG. 1b). […] Next, we removed the four ECD subdomains of human ErbB2 one at a time (FIG. 1d), using the ErbB2-expressing plasmid pCMV6-XL5-ERBB2 as a template. Similar protein expression levels of ErbB2 and its mutants were detected in CHO-K1 cells transiently transfected with the plasmids (FIG. 1d). An equal amount of ErbB2 and its mutants, based on western blot quantification, were used in the same ELISA mentioned above. […] Thus, PEPD bound to D3, but D2 and D4, the latter in particular, may facilitate PEPD binding to ErbB2.
(§2) ELISA-based measurement of PEPD and PEPD binding to ErbB2. To measure PEPD binding to human ErbB2 or its deletion mutants, ELISA plates were coated overnight at 4° C. with 100 μl/well of an ErbB2 antibody (binding to the cytoplasmic tail of ErbB2) at 10 μg/ml. After washing the wells three times with PBST, residual protein binding sites in the wells were blocked by incubation for 2 h at room temperature with 300 μl/well of 1% BSA in PBS. […] After three washes with PBST, 100 μl of a biotin-conjugated anti-His antibody (1:10,000 dilution; note that PEPD is His-tagged) was added to each well and incubated for 2 h at room temperature.

Assay [4] has as its target T2, ErbB2/delD4, human ErbB2 with deletion of ECD subdomain 4 (deletion of amino acids 489-560) (human, UniProt P04626 23-1255).
T2 construct: whole, on cells; Transiently expressed in CHO-K1 cells; also called pCMV6-XL5-ERBB2/delD4
Put plainly: ELISA, equal amounts of ErbB2 and mutants from lysates of transfected CHO-K1 cells.
Description: as §1, §2

Assay [5] deals with T3, ErbB2/delD2, human ErbB2 with deletion of ECD subdomain 2 (deletion of amino acids 196-320) (human, UniProt P04626 23-1255).
T3 construct: whole, on cells; Transiently expressed in CHO-K1 cells; also called pCMV6-XL5-ERBB2/delD2
Described as above.
Description: as §1, §2

Assay [6] has as its target T4, ErbB3/ECD-Fc, chimera of the ECD (Ser20-Thr643) of human ErbB3 and Fc (human, UniProt P21860 20-643).
T4 construct: range 20-643; Bought from R&D Systems; also called human ErbB3/ECD-Fc; R&D Systems 348-RB-050; not shown: Fc (of human IgG1)
Nature of the assay: pull-down with protein G-sepharose, SDS-PAGE, silver stain. The procedure: (§3) Similar protein expression levels of ErbB2 and its mutants were detected in CHO-K1 cells transiently transfected with the plasmids (FIG. 1d). An equal amount of ErbB2 and its mutants, based on western blot quantification, were used in the same ELISA mentioned above. […] Thus, PEPD bound to D3, but D2 and D4, the latter in particular, may facilitate PEPD binding to ErbB2.
(§4) Immunoprecipitation. PEPD was incubated with ErbB2/ECD-Fc, ErbB3/ECD-Fc, ErbB4/ECD-Fc or Fc in binding buffer for 2 h at 37° C., followed by pull down with protein G-sepharose beads. […] For detection of direct and specific binding of PEPD or NRG-1 to ErbB2, ErbB3 or ErbB4, recombinant human PEPD or NRG-1 was incubated with recombinant human ErbB2/ECD-Fc, recombinant human ErbB3/ECD-Fc, recombinant human ErbB4/ECD-Fc or recombinant human Fc in 0.4 ml binding buffer. All solutions were incubated for 2 h at 37° C., followed by incubation with protein G-sepharose beads for 1 h at room temperature. […] In experiments using whole cell lysates, cells were lysed in M-PER buffer supplemented with a proteinase inhibitor mix (Roche Applied Science), and the lysates were incubated with a specific antibody overnight at 4° C., followed by pull down by protein G-agarose. […]

The target in assay [7] is T5, ErbB4/ECD-Fc, chimera of the ECD (Gln26-Arg649) of human ErbB4 and the Fc (human, UniProt Q15303 26-649).
T5 construct: range 26-649; Bought from R&D Systems; also called human ErbB4/ECD-Fc; R&D Systems 1131-ER-050; not shown: Fc (of human IgG1)
T5 sequence (looked up): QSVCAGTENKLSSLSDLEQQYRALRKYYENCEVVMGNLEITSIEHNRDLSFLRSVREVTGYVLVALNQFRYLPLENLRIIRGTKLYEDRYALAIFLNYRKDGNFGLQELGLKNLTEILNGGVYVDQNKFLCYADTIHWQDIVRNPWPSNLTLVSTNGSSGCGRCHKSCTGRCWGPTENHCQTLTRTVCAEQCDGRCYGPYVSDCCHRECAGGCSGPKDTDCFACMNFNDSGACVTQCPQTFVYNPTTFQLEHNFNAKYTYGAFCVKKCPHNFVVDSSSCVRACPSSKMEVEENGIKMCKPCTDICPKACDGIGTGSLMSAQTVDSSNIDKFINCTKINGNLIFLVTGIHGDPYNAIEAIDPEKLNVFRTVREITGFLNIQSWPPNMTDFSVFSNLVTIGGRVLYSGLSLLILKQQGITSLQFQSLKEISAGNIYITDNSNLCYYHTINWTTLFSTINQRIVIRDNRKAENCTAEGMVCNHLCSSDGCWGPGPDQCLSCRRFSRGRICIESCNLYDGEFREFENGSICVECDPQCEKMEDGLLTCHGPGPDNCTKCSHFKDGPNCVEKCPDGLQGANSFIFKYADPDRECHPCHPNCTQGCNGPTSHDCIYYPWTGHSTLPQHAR
The assay is described as above. The procedure: as §3, §4

Assay [8] concerns the target T6, ErbB2 p95 fragment (minus ECD) (human, UniProt P04626 648-1255, limits assumed).
T6 construct: domain: trans-membrane and intracellular regions (p95 fragment, minus ECD); Generated in CHO-K1/ErbB2 cells by 1 mM APMA for 0.25 h and tested in cell lysates; also called trans-membrane and intracellular regions of ErbB2
Nature of the assay: co-immunoprecipitation with a PEPD antibody from lysates of APMA-treated CHO-K1/ErbB2 cells, western blot. The procedure:
FIG. 8. Data showing validation of a cell line used in the present disclosure, and lack of binding of PEPD to the transmembrane and intracellular regions of human ErbB2. (a) CHO-K1 cells were transiently transfected with an ErbB2-expressing plasmid (pCMV6-XL5-ERBB2) or the empty plasmid for 24 h. Human bladder cancer RT-4 cells and human breast cancer MCF-7 cells were untreated and were used as positive controls for ErbB1, ErbB3 and ErbB4. Cell lysates were analyzed by western blotting. GAPDH is a loading control. (b) CHO-K1 cells stably expressing ErbB2 (CHO-K1/ErbB2 cells) were treated with 1 mM APMA for 0.25 h. Cell lysates were then prepared and analyzed by western blotting (the first lane on the right). The same cell lysates were mixed with 1 μM PEPD, which were then incubated with a PEPD antibody or an isotype-matched IgG, pulled down with protein G-agarose, and analyzed by western blotting.
Immunoprecipitation. PEPD was incubated with ErbB2/ECD-Fc, ErbB3/ECD-Fc, ErbB4/ECD-Fc or Fc in binding buffer for 2 h at 37° C., followed by pull down with protein G-sepharose beads. The immunoprecipitates were washed with IP washing buffer and analyzed by western blotting. […] The immunoprecipitates were washed with IP washing buffer and analyzed by western blotting.
A general note: A western blot detects proteins with antibodies after separation by electrophoresis.

T4 sequence (P21860 20-643 limits assumed, change not shown): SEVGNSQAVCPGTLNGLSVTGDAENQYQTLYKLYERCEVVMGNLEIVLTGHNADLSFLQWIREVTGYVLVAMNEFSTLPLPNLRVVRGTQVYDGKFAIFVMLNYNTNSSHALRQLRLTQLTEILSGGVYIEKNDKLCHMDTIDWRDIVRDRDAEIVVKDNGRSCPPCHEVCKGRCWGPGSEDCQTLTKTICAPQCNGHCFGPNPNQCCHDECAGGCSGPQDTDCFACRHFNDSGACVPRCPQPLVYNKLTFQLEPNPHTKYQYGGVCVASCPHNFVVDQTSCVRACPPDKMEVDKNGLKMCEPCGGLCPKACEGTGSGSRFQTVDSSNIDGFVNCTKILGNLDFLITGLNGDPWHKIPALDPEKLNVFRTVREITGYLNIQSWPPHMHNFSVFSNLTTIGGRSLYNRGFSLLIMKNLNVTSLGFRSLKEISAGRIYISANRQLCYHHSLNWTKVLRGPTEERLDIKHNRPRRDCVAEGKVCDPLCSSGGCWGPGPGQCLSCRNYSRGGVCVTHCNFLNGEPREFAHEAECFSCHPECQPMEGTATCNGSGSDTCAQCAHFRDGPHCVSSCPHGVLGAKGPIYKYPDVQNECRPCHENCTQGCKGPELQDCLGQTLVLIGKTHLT

For orientation: Kd means the constant that tells how readily two partners part at equilibrium. The low end stands for a tighter complex, the high end for a looser complex. Take “Recombinant human PEPD (peptidase D, prolidase), wild type, 6×His tagged at the carboxy terminus (from UniProt P12955 1-493)”: the values for the Kd in assay [1] and in assay [2] were 25.9 nM and 372 nM, respectively.

B1: Recombinant human PEPD (peptidase D, prolidase), wild type, 6×His tagged at the carboxy terminus (ligand)
chain: MAAATGPSFWLGNETLKVPLALFALNRQRLCERLRKNPAVQAGSIVVLQGGEETQRYCTDTGVLFLQESFFHWAFGVTEPGCYGVIDVDTGKSTLFVPRLPASHATWMGKIHSKEHFKEKYAVDDVQYVDEIASVLTSQKPSVLLTLRGVNTDSGSVCREASFDGISKFEVNNTILHPEIVESRVFKTDMELEVLRYTNKISSEAHREVMKAVKVGMKEYGLESLFEHYCYSRGGMRHSSYTCICGSGENSAVLHYGHAGAPNDRTIQNGDMCLFDMGGEYYSVASDITCSFPRNGKFTADQKAVYEAVLLSSRAVMGAMKPGDWWPDIDRLADRIHLEELAHMGILSGSVDAMVQAHLGAVFMPHGLGHFLGIDVHDVGGYPEGVERIDEPGLRSLRTARHLQPGMVLTVEPGIYFIDHLLDEALADPARASFLNREVLQRFRGFGGVRIEEDVVVIDSGIELLTCVPRTVEEIEACMAGCDKAFTPFSGPKHHHHHH
notes: Made in bacteria (pBAD/Thio-TOPO, without the N-terminal Thio) and purified on nickel; also called WT-PEPD; rhPEPD
Take B1: in assay [3], the Kd was 7.3 nM. Further, the “fold reduction of binding affinity against wild-type ErbB2” value was determined as 51 fold in assay [4] and 3.5 fold in assay [5]. The binding result in assay [6] is “no binding (tested: PEPD 1 µM with 0.04 µM ErbB3/ECD-Fc)”; in assay [7] it was “no binding (tested: PEPD 1 µM with 0.04 µM ErbB4/ECD-Fc)”; in assay [8], “no binding (tested: 1 µM PEPD)”.
